Measured values as given in patent US20250092426, “CAS ENDONUCLEASES AND RELATED METHODS” (Flagship Pioneering Innovations VII, LLC, published 2025).

Molecular target: T1, CasEnd-18 (synthetic construct)
T1 chain: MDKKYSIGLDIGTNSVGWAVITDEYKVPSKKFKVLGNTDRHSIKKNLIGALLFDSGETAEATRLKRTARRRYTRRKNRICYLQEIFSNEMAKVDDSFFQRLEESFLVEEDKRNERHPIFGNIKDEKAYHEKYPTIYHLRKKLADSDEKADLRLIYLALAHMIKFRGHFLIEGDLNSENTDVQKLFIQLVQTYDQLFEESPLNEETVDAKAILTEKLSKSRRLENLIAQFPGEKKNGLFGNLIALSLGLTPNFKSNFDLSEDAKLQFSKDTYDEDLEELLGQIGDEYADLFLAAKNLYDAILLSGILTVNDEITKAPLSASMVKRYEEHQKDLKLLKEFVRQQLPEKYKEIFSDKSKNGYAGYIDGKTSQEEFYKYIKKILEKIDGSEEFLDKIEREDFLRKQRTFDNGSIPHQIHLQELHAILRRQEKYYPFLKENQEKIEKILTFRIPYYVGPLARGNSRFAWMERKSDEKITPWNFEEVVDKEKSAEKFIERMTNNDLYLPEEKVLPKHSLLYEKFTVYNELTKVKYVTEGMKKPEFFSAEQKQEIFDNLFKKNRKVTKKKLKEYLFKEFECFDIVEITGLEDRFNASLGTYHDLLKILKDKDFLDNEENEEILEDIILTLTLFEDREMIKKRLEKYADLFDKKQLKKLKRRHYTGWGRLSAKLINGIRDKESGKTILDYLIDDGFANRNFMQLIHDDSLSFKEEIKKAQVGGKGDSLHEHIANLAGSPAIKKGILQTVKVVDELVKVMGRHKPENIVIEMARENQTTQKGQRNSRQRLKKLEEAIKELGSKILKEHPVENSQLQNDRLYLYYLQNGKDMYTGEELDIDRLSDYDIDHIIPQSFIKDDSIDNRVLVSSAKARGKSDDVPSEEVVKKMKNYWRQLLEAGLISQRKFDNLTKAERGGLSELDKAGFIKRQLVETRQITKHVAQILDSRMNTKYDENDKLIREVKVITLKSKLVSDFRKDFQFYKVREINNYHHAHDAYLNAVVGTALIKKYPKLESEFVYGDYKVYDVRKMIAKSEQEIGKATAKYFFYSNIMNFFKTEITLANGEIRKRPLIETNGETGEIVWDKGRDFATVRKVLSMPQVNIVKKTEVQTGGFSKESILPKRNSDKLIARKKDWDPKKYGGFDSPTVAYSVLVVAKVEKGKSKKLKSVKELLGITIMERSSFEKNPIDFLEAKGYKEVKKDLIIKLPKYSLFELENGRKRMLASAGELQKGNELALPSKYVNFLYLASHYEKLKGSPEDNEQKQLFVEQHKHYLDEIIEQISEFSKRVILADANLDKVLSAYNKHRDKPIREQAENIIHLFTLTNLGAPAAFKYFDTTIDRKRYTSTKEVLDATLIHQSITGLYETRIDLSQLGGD
Experiment: cell_activity; +++; HEK293T; PAM not stated
Procedure, shortened: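 BFP-to-GFP conversion via reverse transcriptase fusion with each Cas endonuclease plus template RNA: 200 ng of each plasmid nucleofected into 250,000 BFP-expressing HEK293T cells (program DS-150). Percent GFP+ cells by flow cytometry at day 4 measured editing.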

B1: BFP-to-GFP template RNA ; BFP reporter protospacer (ssRNA ; dsDNA)
RNA: GCCGAAGCACUGCACGCCGUGUUUUAGAGCUAGAAAUAGCAAGUUAAAAUAAGGCUAGUCCGUUAUCAACUUGAAAAAGUGGCACCGAGUCGGUGCACCCUGACGUACGGCGUGCAGUGCUU
DNA 1: GCCGAAGCACTGCACGCCGT
DNA 2: ACGGCGTGCAGTGCTTCGGC
  activity: ≥ 100 % of reference
